Source: PMC3985186, “The influence of dynein processivity control, MAPs, and microtubule ends on directional movement of a localising mRNA” (eLife, 2014)

Legend:
[1] = target: the molecule itself; test: SEC; gel filtration of purified kin401T99N:mGFP before concentration
[2] = target: the molecule itself; test: stepwise photobleaching (TIR microscopy); dilute solution (1 pM) of kin401T99N:mGFP added to imaging chambers with HiLyte 647-labelled microtubules bound to the glass, no ATP, oxygen scavenging agent

B1: GFP-labelled Drosophila kinesin-1 (aa 1-401) rigor mutant, Kin401T99N:mGFP (domain or fragment)
chain: not shown
notes: The construct without the mutation was a gift from T Surrey; also called rigor kinesin; GFP-labelled rigor kinesin; source: bacteria (BL21(DE3) strain), dimeric fraction purified using gel filtration; not shown: monomeric GFP, C-terminal, kept
For B1, the “stoichiometry N” value [1] was 2 and the “stoichiometry N” value [2] was ≤ 2.
